Laboratory results as given in paper doi:10.1101/225821 (bioRxiv, 2017).
Values belong to the molecule of their own block, whether it stands above or below them.

Tests used:
[1] = biological target: Fc-tagged SALM3 LRR-Ig-Fn (mouse) (UniProt Q80XU8); test: SPR
SEC-MALS = biological target: the molecule itself; test: SEC-MALS
[2] = biological target: RPTPσ Ig1-3meB_(33-331) (mouse) (UniProt B0V2N1); test: SEC-MALS

fold lower affinity than for RPTPσ-meB [1]: 10 fold
Molecule: PTPσ Ig1-3_(33-327) (from UniProt B0V2N1 33-327) (domain or fragment)

B1: SALM5 LRR-Ig_(18-376) (domain or fragment, mouse, UniProt Q8BXA0 18-376, looked up)
chain: QICPKRCVCQILSPNLATLCAKKGLLFVPPNIDRRTVELRLADNFVTNIKRKDFANMTSLVDLTLSRNTISFITPHAFADLRNLRALHLNSNRLTKITNDMFSGLSNLHHLILNNNQLTLISSTAFDDVFALEELDLSYNNLETIPWDAVEKMVSLHTLSLDHNMIDNIPKGTFSHLHKMTRLDVTSNKLQKLPPDPLFQRAQVLATSGIISPSTFALSFGGNPLHCNCELLWLRRLSREDDLETCASPALLTGRYFWSIPEEEFLCEPPLITRHTHEMRVLEGQRATLRCKARGDPEPAIHWISPEGKLISNATRSLVYDNGTLDILITTVKDTGAFTCIASNPAGEATQTVDLHIIK
stoichiometry N (SEC-MALS): 2

B2: SALM1 LRR-Ig-Fn_(20-518) (domain or fragment, mouse, UniProt Q80TG9 20-518, looked up)
chain: ACPKYCVCQNLSESLGTLCPSKGLLFVPPDIDRRTVELRLGGNFIIHIGRQDFANMTGLVDLTLSRNTISHIQPFSFLDLESLRSLHLDSNRLPSLGEDTLRGLVNLQHLIVNNNQLGGIADDAFEDFLLTLEDLDLSYNNLHGLPWDSVRRMVNLHQLSLDHNLLDHIAEGTFADLQKLARLDLTSNRLQKLPPDPIFARSQASLLTATPFAPPLSFSFGGNPLHCNCELLWLRRLERDDDLETCGSPGSLKGRYFWHIREEEFVCEPPLITQHTHKLLVLEGQAATLKCKAIGDPSPLIHWVAPDDRLVGNSSRTAVYDNGTLDILITTSQDSGPFTCIAANAAGEATATVEVSIVQLPHLSNSTSRMAPPKSRLSDITGSSKTSRGGGGSGAGEPPKSTPERAVLVSDVTTTSALVKWSVSKSAPRVKMYQLQYNCSDDEVLIYRMIPASNKAFVVNNLVSGTGYDLCVLAMWDDTATTLTATNIVGCAQFFTKAD
stoichiometry N (SEC-MALS): 2

stoichiometry N (SALM3 per RPTPσ (2:1)) [2]: 2
B3: SALM3 LRR-Ig_(17-367) (domain or fragment, mouse, UniProt Q80XU8 17-367, looked up)
chain: CPLPCVCQNLSESLSTLCAHRGLLFVPPNVDRRTVELRLADNFIQALGPPDFRNMTGLVDLTLSRNAITRIGARSFGDLESLRSLHLDGNRLVELGSSSLRGPVNLQHLILSGNQLGRIAPGAFDDFLDSLEDLDVSYNNLRQVPWAGIGSMPALHTLNLDHNLIDALPPGVFAQLSQLSRLDLTSNRLATLAPDPLFSRGRDAEASPSPLVLSFSGNPLHCNCELLWLRRLARPDDLETCASPPTLAGRYFWAVPEGEFSCEPPLIARHTQRLWVLEGQRATLRCRALGDPVPTMHWVGPDDRLVGNSSRAWAFPNGTLEIGVTGAGDAGAYTCIATNPAGEATARVELR
stoichiometry N (SEC-MALS): 2

B4: SALM3 LRR-Ig-Fn_(17-510) (domain or fragment, mouse, UniProt Q80XU8 17-510, looked up)
chain: CPLPCVCQNLSESLSTLCAHRGLLFVPPNVDRRTVELRLADNFIQALGPPDFRNMTGLVDLTLSRNAITRIGARSFGDLESLRSLHLDGNRLVELGSSSLRGPVNLQHLILSGNQLGRIAPGAFDDFLDSLEDLDVSYNNLRQVPWAGIGSMPALHTLNLDHNLIDALPPGVFAQLSQLSRLDLTSNRLATLAPDPLFSRGRDAEASPSPLVLSFSGNPLHCNCELLWLRRLARPDDLETCASPPTLAGRYFWAVPEGEFSCEPPLIARHTQRLWVLEGQRATLRCRALGDPVPTMHWVGPDDRLVGNSSRAWAFPNGTLEIGVTGAGDAGAYTCIATNPAGEATARVELRVLALPHGGNTSAEGGRPGPSDIAASARTAAEGEGTLESEPAVQVTEVTATSGLVSWGLGRPADPVWMFQIQYNSSEDETLIYRIVPASSHHFLLKHLVPGADYDLCLLALSPAAGPSDLTATRLLGCAHFSTLPATPLCHALQ
stoichiometry N (SEC-MALS): 2
